What was measured:
[1] = molecular target: human IL-23R on Kit-225 cells (human) (UniProt Q5VWK5); test: cell-based or functional assay
[2] = molecular target: human IL-23R-mouse Fc fusion protein (human; mouse) (UniProt Q5VWK5); test: antigen ELISA, human IL-23R-mouse Fc immobilized, HRP anti-human IgG, chemiluminescence
[3] = molecular target: monkey IL-23R-mouse Fc fusion protein (monkey; mouse); test: antigen ELISA, monkey IL-23R-mouse Fc immobilized, HRP anti-human IgG, chemiluminescence

Chain of human IL-23R on Kit-225 cells (human) (Q5VWK5 24-629 L310P limits assumed): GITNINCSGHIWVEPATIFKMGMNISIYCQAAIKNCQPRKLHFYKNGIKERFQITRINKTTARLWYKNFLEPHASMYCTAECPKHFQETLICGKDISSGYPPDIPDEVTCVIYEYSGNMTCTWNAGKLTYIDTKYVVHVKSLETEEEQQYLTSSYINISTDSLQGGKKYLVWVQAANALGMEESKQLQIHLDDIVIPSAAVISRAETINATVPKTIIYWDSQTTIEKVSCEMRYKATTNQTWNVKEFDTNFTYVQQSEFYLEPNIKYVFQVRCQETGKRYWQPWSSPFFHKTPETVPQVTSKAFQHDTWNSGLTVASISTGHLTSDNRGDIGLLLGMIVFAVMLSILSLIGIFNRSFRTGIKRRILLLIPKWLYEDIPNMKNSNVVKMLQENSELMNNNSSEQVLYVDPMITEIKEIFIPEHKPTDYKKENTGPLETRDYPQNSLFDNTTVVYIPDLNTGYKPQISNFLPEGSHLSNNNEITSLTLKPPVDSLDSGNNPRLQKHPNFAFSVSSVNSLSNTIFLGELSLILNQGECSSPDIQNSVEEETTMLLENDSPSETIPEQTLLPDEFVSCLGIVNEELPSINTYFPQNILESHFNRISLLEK
Chain of human IL-23R-mouse Fc fusion protein (human; mouse) (Q5VWK5 24-353 L310P limits assumed): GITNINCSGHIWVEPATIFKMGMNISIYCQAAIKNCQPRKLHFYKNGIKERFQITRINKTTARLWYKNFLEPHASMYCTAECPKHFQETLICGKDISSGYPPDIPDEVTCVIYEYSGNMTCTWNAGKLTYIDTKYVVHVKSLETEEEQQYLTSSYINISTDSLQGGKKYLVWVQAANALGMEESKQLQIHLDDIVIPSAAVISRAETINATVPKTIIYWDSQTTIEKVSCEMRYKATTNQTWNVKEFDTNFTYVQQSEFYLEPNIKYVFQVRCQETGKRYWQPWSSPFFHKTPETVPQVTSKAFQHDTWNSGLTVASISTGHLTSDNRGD

Human IL-23-inducible Kit-225 cell proliferation inhibitory activity, IC50 [1]: 0.0276 µg/mL
EC50 [2]: 0.0452 µg/mL
EC50 [3]: > 10 µg/mL
B1: hum20D7 (antibody, from another filing, V domains shown)
VH: QVQLVQSGAEVKKPGASVKVSCKASGYTFTNYAMNWVRQAPGQGLEWMGWINTYTGEPTYSDDFKGRVTFTLDTSTSTAYMELRSLRSDDTAVYYCARGGGYDEDYFDYWGQGTLVTVSS
VL: DIVMTQSPLSLPVTPGEPASISCKSSQSLFNTINQKTYLAWYLQKPGQSPQLLIYFASTRESGVPDRFSGSGSGTDFTLKISRVEAEDVGVYYCQQHYDTPWTFGQGTKVEIKR

From patent publication US20150126713A1
